Measured values from patent US20250264433A1 (STATE OF ISRAEL MINISTRY OF AGRICULTURE AND RURAL …, published 2025).

Target: Native EspB of wild-type EPEC O127:H6 strain E2348/69
Sequence (Q05129 whole entry): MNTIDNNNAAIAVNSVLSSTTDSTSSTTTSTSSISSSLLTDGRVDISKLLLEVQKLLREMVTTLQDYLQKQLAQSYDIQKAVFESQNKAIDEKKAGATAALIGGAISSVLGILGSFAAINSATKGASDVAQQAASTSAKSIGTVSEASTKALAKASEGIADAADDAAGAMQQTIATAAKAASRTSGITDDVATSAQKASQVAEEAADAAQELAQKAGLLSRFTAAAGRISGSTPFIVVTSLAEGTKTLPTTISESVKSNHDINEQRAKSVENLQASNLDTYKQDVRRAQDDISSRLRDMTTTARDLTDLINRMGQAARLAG

B1: mAb-EspB-B7 (antibody, V domains shown)
VH: EVQLLESGGGLVQPGGSLRLSCAASGFTFSHYAMNWVRQAPGKGLEWVSAINSNGDSTYYPDTVKDRFTISRDNSKNTLYLQMNSLRAEDTAVYYCARDRRAGYFDYWGQGTLVTVSS
VL: DIVLTQPPSASGTPGQRVTISCSGSRDNIGKNYVSWYQQLPGTAPKLLIYRNNQRPSGVPDRFSGSKSGTSASLAISGLRSEDEADYYCSAWDTSLNAYVFGPGTQLTVL
notes: also called mAb-B7; anti-EspB antibody
Q: With B1 as the binder, how does the “signal for EPEC WT relative to the ΔespB strain” value read?
A: 36%
